test: soluble on expression in E. coli; label from the status in PepcDB or PDB records

| Sequence | soluble on expression in E. coli |
| --- | --- |
| MSLTALMVGTGRGAKMGILIKNGEVLEAVNDVQTVVFDKTGTLTVGKPQVTDIIGDSKQVLRIAASLEDSSEHPLAAAILAKAKADNISTLPVENFTAIEGKGVAATISGQQGVVGNQKLLGDLTFNKQLQQQETRLQNEAKTVVFVGLDDRIIGLIAIQDAPKPTSKEAIAALRARGLRTVMLTGDNQRVAQAVAQQIGIDEVIADVLPGDKAAQIKQFQHDEGHHHHHH | soluble |
| MLLQVHRLLFEKFYPWAGRDRLELVPHLSVWKGPKGAPRRTFFESPAMIERAVDYALSLASKKQGFMQKPGEVMGLLCFAHPFLDGNGRSILLFYMELSYRAGFAIDWASTRKDDYLQALDDEIHNPGKGHL | soluble |
| MCGVSLSVIIETLYFACRFRMVEKFLNQSVIWCRSGALRHCRTCGRGRAADTAFTLGDGSKRMGGCVQKEKNEAQKGEKGYRFRLFTGK | not soluble |
| GKTFPSRAYIDGTLSARVIAHEFGHNLGLSHAKALDCGDASVSNNCSVIEYGDSYDVMGTPDMGYINTYYKERMGWLNDAESPNILTATQDGLYEIAEYETQDITQNIALKIPRGVNPNSGLKEWFYVEYRQAMGYDQFLDDRSYMLFRGDVTDGVIVRLVEEGAEESYILHMKPNSDYSQVYGRKDWKDTALPVGDSFTDP | not soluble |
| PLEKTVRLHSSSGTTGNPTVILHTQKDLDEWANAVARCLYMVGLRPGDIFQNSSGYGMFTGGLGFQYGAERLGMLTVPAAAGNTKRQLKFISDFGTTALHAIPSYAARMYEIMQEMGIDPRRDTKLRTLIIGAEPHSEEQRRRIEDMLGVKAYNSFGMSEMCGPGVAFECQEQNGLHIW | not soluble |
| SLGAGQPLGGYAEDLEGRQADLPKYSRANVRIVFAAVFPESNVYQGGEGYPTPSSSRLLLLDQVKTYYALSSIHGVEIIESWRSAQEVLEAPRWRLGLLLHLEGADALADILDLELLHRLGFRSLGLTWNHDNRWAASCKTRRDYGLTQSGEDLVKKAAELGVIIDLAHASDKTVADAASASPKPVIVSHANFRWKVDSPRNVGEEAVEAVVSKGGVIGYSLISTLITRGRHPTLHDVASQMAEFVEVYGHRHLAIGTDYHGLLDIRPPTGLESIDRLPRLLEALADAGLSDRQIEAIAYGNIARVIREVLPES | not soluble |
| MAITIQNHELQVTLKALGATMTSITDSQGVEYLWQGDATYWGGQAPILFPICGSVRNDCVIYRPAQAPHFTGIIPRHGFVRHKTFDYDYISDSSVRFTIKSSKEMLINYPYRFSLEITYTLRNKSIAITYIVKNLESEKNMPYAIGAHPGFNCPLFEKEVFSDYYLEFEQFETCTIPESFPDTGLLDLQARHPFLENQKQLSLNHALFEKDAITLDQLRSKTVYLKSRNHAKGIQLDFDDFENLILWTSNNGGPFLALEPWSSLSTSIEESDILEDKQNIVRLNPKQSKQHSIRITILLEHHHHHH | soluble |
| MIKDPRPLNDKAFIQQCIRQLCEFLTENGYAHNVSMKSLQAPSVKDFLKIFTFLYGFLCPSYELPDTKFEEEVPRIFKDLGYPFALSKSSMYTVGAPHTWPHIVAALVWLIDCIKIHTAMKESSPLFDDGQPWGEETEDGIMHNKLFLDYTIKCYESFMSGADSFDEMNAELQSKLKDLFNVDAFKLESLEAKNRALNEQIARLEQERSTANKANAERLKRLQKSADLYKDRLGLEIRKIYGEKLQFIFTNIDPKNPESPFMFSLHLNEARDYEVSDSAPHLEGLAEFQENVRKTNNFSAFLANVRKAFTATVYQ | soluble |
| MGSDKIHHHHHHMAQSDKDLTLTPLKGKSGQAYIGTYPNGDKIFVKINTTPILAALAKEQIAPQLLWAKRLGNGDMMSAQEWLDGRLLTRADMNSKQIIQVLLQMHKSKPLVNQLLQLNYKVETPLDLLLSWERSAPYQISENAYLQSVVAEMKRNLPDFKKDYATIVHGDVRHSNWVITTSGLVYLVDWDSVRVTDRMYDVAHILSHYIPHTRWVEWLSYYGYKQNTKVFQKIKWYGQLSYLSQILKYYENRDMENVNQEIYELRKFRESF | not soluble |
| MASASNKQLELWKQYADTKNPAIKEQLIIEYSNIVKYIAGRLSIYFGSNVEYDDLIGYGIFGLIDAIEKFDINKGVKFETYASLRIRGSIIDSIRELDWVPRSLRQKNKELEKVYAEIENELGRSASDKEVADKLGITVDELNKLLNEVNLSSMISLEEFLEQNYEIGVTTAPESRDEKPEGYIEMAELREILADAISKLPEKEKMVITLYYFGEVVK | soluble |
| MGSDKIHHHHHHMLFCSMNAVRNWYILPVFFITSFISKGQNGALIPDTYDQFFQNYYLINPANTDTAGVILHMGHKSQLGVFRGVRQTYFDANFRIQSNRFNRAHSVGIQLFNNSEGDFFSKNRIYGRYAFDIHLSETYFLSAGIAVGAVSYAFKATQSSAGGSDLAYDGSTGLWVVGRKLKAGISIQQISQGKLSPLGQIFELRRQYNANVSYLFFINPDIQLTTHVWYKYQQHNMHDVQVAAIITLQNLVEFGGNYKYQKGVVLIGGLKDIHIGTSSLSLAMSYSTGILNYLAKGDNAVEVFLTYSR | not soluble |
| MPPKKVSPGITVILIDAGSNMSVKDTETGKSAFENAINAADWIVSRKLFSKDPELFSVMAYNLDPKEYKTEVGGQTFNGVQCQNEKFTPASFDHLKFITKELQQNTEMIDPNFFKGVLGAVAVLKDQIESYPNPSGITLIVLTNGLNENIRQENFDLLVEAVSESNADLMIIGIDENPEYPASRVAELAETLEGRTYTFQNVAKMLSTFQARQKSERKYNKMWDIAPGIHLPVIFALKSEKSTALLKFKNADSEGNEMVRLEQMHVETDEVAPKDEFKSPVLEEKPKFQKNFKPVENIKTMHGSEILNFLKSIINASGYNFGKSVIMMDPEYLKEKYNDHNFNEGQTGGVLKLIQFTKRANILDSYLLDASAKTVLPALNSPKSGATKATVSLIEAMLSLRVAAICRYTFHAKSHVQLIALLPHQDEETGVFYLRSVKLPFSDDMRTLKFPKFSFDEEDEDLNKPTVAQLSAVDDLIDCMQLQEDEISSLVEGGMSDPKLQMQCHFLKSLVLHPNDTFENHSNRTNQILDQIMAPKRRVEAEHPEIFQKLGREFNLQPIQKTKRERVTVEPEDLQTMISEWTEKKQNMTQPDEVDDGASQKKKKKPNAKKLTRKEEVQMDIMEDGGASRVCSKILEMISNTCKFQPNGAVTEFFTLLVNELNVIRSVFVENSKCDEFNELLKKLKDEEDFEPFAEVLSEEKSCNPIDSSEVSMSEVSVANAAEFWEED | not soluble |
| MSGTNRVAANLNMLFTNLPLLQRYGAAASAGFKLVEVSIPYTEPAEKLREAADEYHLKHTLINAPPGNWDDGFRGLASLKSAKKEFRKSLDTAIEYAKALGCCRVHVMAGIPKSDDDLENAHQTYSENVRFAAEKFKEHKLICLIEPINKYTIPGYHLNNYEDAMDVIQMDQSNNLKIQYDTFHAQQINGQIGAIMRKLKDYIGYIQVAQVPNRGACDTRGEIDYHFIFDEIRSINPSWVIGAEYLDAKPSFNWIENMSLSF | not soluble |
| MAHHHHHHMTVNNSNNNNNGERLGSGTARLFVGQLNFDATEHDLRQIFSFYGHVIHTNVLRDADGKSTGSGFVTFRVTDEADFAIMSMHDRYNMGREKPLQVSYCRRSERISPFGYEHAMKLREKNTTNPPPPQPTSS | soluble |
| MFSRRTTPSPSITTASSSTFSISNLTNNNATSTSDLPASAISNIVPQIPPTPRRVPPKIGLLRHLSGFLESKKDLMNDWEIGGTQNKWVCPSDRHLHLRAQLKSGWSVRTATARSPTNSKAQTGSITAAEQEHIQKVLAKAEESKSKEQQRIGKMVDRLEKMRRRATGNGVTHCLLCHTEFGLLASKSYAAMCVDCRKYVCQRNCGVETTDVNQTTGKVETVFLCKICSEAREVLWKKSGAWFYKEMPEFQRPDDRLPYYVPVTTNGTLPNASSAATPLSGTPGGAGPQPMTMPSTSSCQMTTPKWASPGVCNSPGLQMNGGPTSPLPNGTRRNTGHGGIEFPSSSRPSICSVLQAIEPLDRSKSPRPRIQPRWVNEKVMSSMSVDDEEKAASSSDGESFVQSGVPRRALNNKTPVGSTSATTSPAPPPTSTTPTSRREANMERFSRHTHAHANRLYSTDDDDDSSPESRPSTRSTSPRHSLATPSSYAHDTCHDTSLPDADTRSIDSGVVQSDHSNPQQSGLTCSSSSLTPLQQQASHDHHSGGGTPRRISNPDRTTSRVAQSASGTSLVTPPPPISSRTSPDNCNSSPLNVMEHKSSSASTASSGGNRRVGSAEPVLNNHHAMHNNQNHNDINKKLISQTSRAESPLAASSSFLSSPDDDTKQKNRRRDGVGRVNSLQLRTSLDDVAPPVAPISKMNGHIVSSEPTSSTTSNQNHTSVPIPTVPVVPEEEEEKAITASTESASEPGSLGSITLTLTYHSADKKLKMHLIRAKNLKAMDSNGFSDPYVKFHLLPGNTKATKLTSKTIEKTLNPEWNEEMSYYGITEDDKEKKILRVTVLDRDRIGSDFLGETRIALKKLNDNEMKKFNLYLESALPVPQQTKEEENEDRGKINVGLQYNIQQGSLFININRCVELVGMDSTGFSDPYCKVSLTPITSKAHRAKTSTKKRTLNPEWNEQLQFVVPFKDLPKKTLQIGVYDHDLGKHDDYIGGILLSTSAKDERGRQWIKCIENPGTLVEAWHRLELDS | not soluble |
| MSKIAKTAIISPKAEINKGVEIGEFCVIGDGVKLDEGVKLHNNVTLQGHTFVGKNTEIFPFAVLGTQPQDLKYKGEYSELIIGEDNLIREFCMINPGTEGGIKKTLIGDKNLLMAYVHVAHDCVIGSHCILANGVTLAGHIEIGDYVNIGGLTAIHQFVRIAKGCMIAGKSALGKDVPPYCTVEGNRAFIRGLNRHRMRQLLESKDIDFIYALYKRLFRPIPSLRESAKLELEEHANNPFVKEICSFILESSRGVAYKSSEYSSEEKQEE | soluble |
| MSSNPLRFFVLTIFPHIISCYSEYGIVKQAIKKGKVEVYPIDLREFAPKGQVDDVPYGGLPGMVLKPEPIYEAYDYVVENYGKPFVLITEPWGEKLNQKLVNELSKKERIMIICGRYEGVDERVKKIVDMEISLGDFILSGGEIVALAVIDAVSRVLPGVLSEPQSIQEDSFQNRWLGYPVYTRPREYRGMKVPEELLSGHHKLIELWKLWHRIENTVKKRPDLIPKDLTELEKDILNSILSGKSFKEWLKEHKHLLLEHHHHHH | not soluble |
| MAKKKTKFTCQECGYQSPKYMGKCPGCGQWNSLVEEMEPVVSSRRLNYANAIQTEVTKPRRLTEVETKSEARIETKFQEFNRVLGGGIVDGSLVLIGGDPGIGKSTLLLQISSQLADASYDVLYISGEESAKQIKLRADRLHVNGSNLFVVSETDLQRIAAHIEEMNPAFVVIDSIQTIHLPEVTSAPGSVAQVRECTAELMKLAKTKGIPIFIVGHVTKEGAIAGPRMLEHMVDAVLYFEGDRHHTYRILRAVKNRFGSTNEMGIFEMKELGLAEVLNPSEIFLEERPVGVAGSTVVASMEGTRPVLVEIQALISPTSFGNPRRMATGIDHNRVSLIMAVLEKRTGLLLQNQDAYLKVAGGLKLDEPAIDLAVALSIASSFRDKSTAPTDAVIGEVGLTGEIRRVSRIEQRVQEAAKLGFQRAIIPRKNLGGWTIPEGIEVVGVSNLGEALRLTLGG | not soluble |
| MGHHHHHHSHGSYANEISSSIIINRPAERLFDLWRKPETLPILMGHFASIEILNHTDSNWRINTPIGSLIEWQARIIDEKPGEYIHWRSLEGARVPNEGRLSFQPAASEAGTAVTLTIRYNPPGGLIGKKIGQMFDMFSRDMLTKTLYRFKKLAEDER | soluble |
| MGSDKIHHHHHHMLLILDEYFKEHPIKLRIVDGLYTSGISIRNGRFFTNDVEISVSEIASAFNVNRKTVYETIKLVESNDSLRRVMSSIKPMADIADVALLTGNQIITAYTTLGHFPYVFKEIFNTISKYGCYIREVFSRNMSQEESFIRIIFYRPIPDRIIGQIRKIDGVKSLEVRVNMDTDQILCNNCDIKICPTKYISDVEKEELGDL | not soluble |
| MGDGVLELVVRGMTCASCVHKIESSLTKHRGILYCSVALATNKAHIKYDPEIIGPRDIIHTIESLGFEASLVKIE | soluble |
